Measured values reported in patent US9404098, “Method for cleaving a target RNA using a Cas6 polypeptide” (University of Georgia Research Foundation, Inc.).
Substitutions are numbered along the chain they refer to.

How the values were obtained:
[1] = target: T1, PfCas6 (PF1131) (Pyrococcus furiosus, UniProt Q8U1S4 SEQ:1-264); assay: EMSA; binding abolished; up to 500 nM; conditions: tags: N-terminal 6xHis; label: 32P uniform
T1 sequence: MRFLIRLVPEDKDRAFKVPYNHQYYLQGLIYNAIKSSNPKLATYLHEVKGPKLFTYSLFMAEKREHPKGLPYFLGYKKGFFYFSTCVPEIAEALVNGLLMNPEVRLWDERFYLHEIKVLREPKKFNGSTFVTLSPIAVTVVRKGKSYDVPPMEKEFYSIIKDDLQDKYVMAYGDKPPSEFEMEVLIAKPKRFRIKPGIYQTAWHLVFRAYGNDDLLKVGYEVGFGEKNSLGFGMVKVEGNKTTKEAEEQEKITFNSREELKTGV
Description: (§1) Typically, identical reaction conditions were used to assay the ability of PfCas6 protein to bind to and to cleave substrate RNAs. These reactions were initiated by incubating 0.05 μmol of ^32P-radiolabeled RNAs (either uniformly or 5'-end-labeled) with up to 1 (as indicated in the figure legends) of PfCas6 protein in 20 mM HEPES-KOH (pH 7.0), 250 mM KCl, 0.75 mM DTT, 1.5 mM MgCl_2, 5 μg of E. coli tRNA, and 10% glycerol in a 20-μL reaction volume for 30 minutes at 70° C. Half of the reactions were directly run on native 8% polyacrylamide gels to assay RNA binding by gel mobility shift essentially as described (Baker et al., 2005. Genes & Dev. 19: 1238-1248). […] Gels were dried and the radiolabeled RNAs visualized by phosphorimaging.
(§2) Figure 4: FIG. 4. CRISPR repeat sequence requirements for PfCas6 binding. (A) Detailed analysis of binding with a series of CRISPR-derived RNAs and mutants. The left panel illustrates the RNAs tested, with repeat (R) and invader targeting (ψ) sequences, and PfCas6 cleavage site (dashed lines) indicated. The shaded portion of j denotes an insertion, dashed block denotes an internal deletion, and The shaded portions of **, e, f, and k denote substitutions (with complementary sequence). DNA indicates a DNA repeat sequence substrate. PfCas6 binding is summarized relative to binding to the 5' cleavage product (++++). […]

[2] = target: T1, PfCas6 (PF1131); assay: EMSA; binding to the 5' cleavage product formed during incubation; conditions: tags: N-terminal 6xHis; label: 32P 5' or uniform
Description: as §1, §2

[3] = target: T1, PfCas6 (PF1131); assay: EMSA; up to 500 nM; conditions: tags: N-terminal 6xHis; label: 5' 32P
Description: as §1, §2

[4] = target: T1, PfCas6 (PF1131); assay: EMSA; 0-500 nM Cas6, 70 C, 250 mM KCl, 1.5 mM MgCl2; conditions: tags: N-terminal 6xHis; label: 32P uniform
Description: Figure 3: FIG. 3. Identification of the site of PfCas6 cleavage within the CRISPR repeat RNA. (A) The site of PfCas6 cleavage within the CRISPR repeat RNA was mapped by incubating 5' end labeled repeat RNA with PfCas6 nuclease and comparing the size of the 5' RNA cleavage product (arrow) with RNAse T1 (T1) and alkaline hydrolysis (OH) sequence ladders. (B) Potential secondary structure of P. furiosus repeat RNA (SEQ ID No: 238) with cleavage site indicated. (C) Analysis of cleavage of wild-type and cleavage site mutant (AA to GG) repeat RNAs with increasing concentrations (0, 1, 50, 200, and 500 nM) of PfCas6. (D) Native gel mobility shift analysis of wild-type and mutant repeat RNAs with increasing concentrations of PfCas6. The positions of the free (RNA) and protein-bound (RNP) RNAs are indicated. 5' and 3' cleavage products are indicated in both C and D. The sizes of RNA markers (M) are indicated in A and C.
Typically, identical reaction conditions were used to assay the ability of PfCas6 protein to bind to and to cleave substrate RNAs. These reactions were initiated by incubating 0.05 μmol of ^32P-radiolabeled RNAs (either uniformly or 5'-end-labeled) with up to 1 (as indicated in the figure legends) of PfCas6 protein in 20 mM HEPES-KOH (pH 7.0), 250 mM KCl, 0.75 mM DTT, 1.5 mM MgCl_2, 5 μg of E. coli tRNA, and 10% glycerol in a 20-μL reaction volume for 30 minutes at 70° C. […]

[5] = target: T1, PfCas6 (PF1131); assay: EMSA; 70 C; conditions: tags: N-terminal 6xHis
Description: as §1
Figure 4: FIG. 4. CRISPR repeat sequence requirements for PfCas6 binding. (A) Detailed analysis of binding with a series of CRISPR-derived RNAs and mutants. The left panel illustrates the RNAs tested, with repeat (R) and invader targeting (ψ) sequences, and PfCas6 cleavage site (dashed lines) indicated. The shaded portion of j denotes an insertion, dashed block denotes an internal deletion, and The shaded portions of **, e, f, and k denote substitutions (with complementary sequence). DNA indicates a DNA repeat sequence substrate. PfCas6 binding is summarized relative to binding to the 5' cleavage product (++++). Corresponding RNA diagrams and data panels are designated with lowercase letters. The right panels show gel mobility shift analysis of the indicated RNAs with increasing concentrations (0, 1, 50, 200, and 500 nM) of PfCas6. Substrates are uniformly radiolabeled except for those shown in panels a, b, c, and 1, which are 5'-end-labeled. (B) PfCas6 interacts with the gel-purified 5' cleavage product.

[6] = target: T1, PfCas6 (PF1131); assay: footprint; nt 2-8 protected from Pb(II); nt 3, 5 and 8 from RNase A; no 3' region protection; 500 mM KCl; conditions: tags: N-terminal 6xHis; label: 32P (5', 3' or uniform); potential weak hairpin, mostly unstructured in solution
Text: Size markers include 5' end-labeled RNA markers (M) and alkaline hydrolysis ladders (OH). Bars along right side of each gel indicate strong protections. (B) 5' end-labeled CRISPR repeat RNA was used for lead-induced and RNase A cleavage as was done in (A). […] (C) A summary of cleavage protection is shown. The Cas6 cleavage site is indicated by an asterisk (*), and the nucleotides protected from cleavage are shown by the bars above and below the sequence FIG. 10. Lead-induced and RNase A cleavage footprinting with CRISPR repeat RNA and PfCas6. (A) 3' end labeled CRISPR repeat RNA was incubated in the absence (RNA) or presence of increasing concentrations of PfCas6 (indicated in μM) and then subjected to RNase A cleavage (left panel) or lead-induced cleavage (right panel). […] Size markers include 5' end-labeled RNA markers (M) and alkaline hydrolysis ladders (OH). Bars along right side of each gel indicate strong protections. (B) 5' end-labeled CRISPR repeat RNA was used for lead-induced and RNase A cleavage as was done in (A). […] (C) A summary of cleavage protection is shown. The Cas6 cleavage site is indicated by an asterisk (*), and the nucleotides protected from cleavage are shown by the bars above and below the sequence (SEQ ID NO: 238). Figure 10:
Specifically, nucleotides 2-8 were protected from lead induced cleavage in a Cas6 concentration dependent manner. […]

[7] = target: T2, PfCas6 Y31F (Pyrococcus furiosus, UniProt Q8U1S4 SEQ:1-264, Y31F); assay: cleavage_in_vitro; 500 nM; conditions: tags: N-terminal 6xHis; label: 32P (5', 3' or uniform); potential weak hairpin, mostly unstructured in solution
T2 sequence: T1 sequence with Y31F
Description: (§3) RNA-binding and cleavage reactions. RNA binding and cleavage reactions were carried out as described in example 1. Briefly, 0.05 μmol of uniformly ^32P-labeled RNA was incubated in the absence (free RNA) or presence of increasing concentrations of Cas6 (as indicated in figure legends) in buffer A for 30 minutes at 65-70° C. Half of each reaction was run on 8% native polyacrylamide gels to assess RNA binding by gel mobility shift analysis. RNA cleavage was assessed by separation of the RNAs on denaturing, 7 M urea containing, 15% polyacrylamide gels following PCI extraction and ethanol precipitation. For analysis of native Cas6 cleavage activity, either ~40 μg of whole cell extract (WCE) or supernatant from an immunoprecipitation reaction (see below) was incubated with 0.05 μmol of uniformly ^32P labeled RNA for 30 minutes at 70° C. Alternatively, 10 μL of resin from an immunoprecipitation reaction (see below) was added. In this case, samples were mixed every five minutes by pipetting up and down during the 30 minute incubation at 70° C. The gels were dried and RNAs visualized by phosphor imaging. Quantitation of cleavage was performed using ImageQuant™ TL software (GE Life Sciences).
(§4) Figure 11: FIG. 11. Cleavage activity of Cas6 mutants. […] The 5' and 3' cleavage products are indicated. (B) Purified wild type (wt) and mutant Cas6 proteins (as indicated above) were separated by SDS-PAGE. Molecular weight markers are indicated in kDa.
(§5) Mutation of any of the three triad amino acids led to a significant decrease or complete loss of cleavage activity relative to wild type Cas6 (FIG. 11A).

[8] = target: T3, PfCas6 K52A (Pyrococcus furiosus, UniProt Q8U1S4 SEQ:1-264, K52A); assay: cleavage_in_vitro; 500 nM; conditions: tags: N-terminal 6xHis; label: 32P (5', 3' or uniform); potential weak hairpin, mostly unstructured in solution
T3 sequence: T1 sequence with K52A
Description: as §3, §4, §5

[9] = target: T4, PfCas6 K52E (Pyrococcus furiosus, UniProt Q8U1S4 SEQ:1-264, K52E); assay: cleavage_in_vitro; 500 nM; conditions: tags: N-terminal 6xHis; label: 32P (5', 3' or uniform); potential weak hairpin, mostly unstructured in solution
T4 sequence: T1 sequence with K52E
Description: as §3, §4, §5

[10] = target: T1, PfCas6 (PF1131); assay: EMSA; affinity similar to 5' cleavage product; conditions: tags: N-terminal 6xHis; label: 32P
Description: as §1, §2

[11] = target: T1, PfCas6 (PF1131); assay: EMSA; gel-purified; up to 500 nM; conditions: tags: N-terminal 6xHis; label: 32P uniform
Description: as §1, §2

B1: del. 1-8 (ssRNA)
RNA: GGGAAGACCAAAAUAGAAUUGAAAG
B1: no binding [1].

B2: repeat-guide-repeat (R-g-R) (ssRNA)
RNA: GGGUUCCAAUAAGACUACAAAAGAAUUGAAAGUUGUAGUAUGCGGUCCUUGCGGCUGAGAGCACUUCAGGUUCCAAUAAGACUACCAAAAGAAUUGAAAG
B2: binds [2].

B3: last 8 nt of repeat + guide (ssRNA)
RNA: AUUGAAAGUUGUAGUAUGCGGUCCUUGCGGCUGAGAGCACUUCAG
B3: no binding [3].

B4: AA to GG cleavage site mutant repeat (ssRNA)
RNA: GGGUUACAAUAAGACCAAAAUAGGGUUGAAAG
B4: binds [4].

B5: sub. 23-30 (ssRNA)
RNA: GGGUUACAAUAAGACCAAAAUAGAAAACUUUC
B5: binds ([5]; label: 32P uniform).

B6: CRISPR repeat RNA (ssRNA)
RNA: GUUACAAUAAGACCAAAAUAGAAUUGAAAG
With B6 the binding result [6] was “binds”, the activity [7] was ~2 fold reduction vs wild type and the activity [8] was > 40 fold reduction vs wild type. The activity [9] was > 150 fold reduction vs wild type.

B7: repeat nt 1-12 (ssRNA)
RNA: GUUACAAUAAGA
B7: binds [10].

B8: sub. 1-8 (ssRNA)
RNA: GGGCAAUGUUAAAGACCAAAAUAGAAUUGAAAG
B8: no binding [1].

B9: 3' cleavage product (repeat nt 23-30) (ssRNA)
RNA: AUUGAAAG
B9: no binding [11].

B10: DNA repeat (ssDNA)
DNA: GTTACAATAAGACCAAAATAGAATTGAAAG
modifications: [none]
B10: no binding [3].

B11: del. 23-30 (ssRNA)
RNA: GGGUUACAAUAAGACCAAAAUAG
B11: binds ([5]; label: 32P uniform).

B12: guide + first part of repeat (panel c) (ssRNA)
RNA: GGGAUUGAAAGUUGUAGUAUGCGGUCCUUGCGGCUGAGAGCACUUCAGGUUACAAUAAGACCAAAAUAGA
B12: binds ([5]; label: 5' 32P).
